Columns and labels:
[1] = molecular target: T1, ProQ (minimal ProQ, FinO domain with short N- and C-terminal extensions) (Neisseria meningitidis) (UniProt Q9JY98); test: EMSA; conditions: 25 mM Tris pH 7.5, 150 mM NaCl, 5% glycerol, 1 mM MgCl2, 1 nM 32P-RNA, ProQ up to 50 nM, 30 min at room temperature; 6% native gel at 4 C
T1 sequence: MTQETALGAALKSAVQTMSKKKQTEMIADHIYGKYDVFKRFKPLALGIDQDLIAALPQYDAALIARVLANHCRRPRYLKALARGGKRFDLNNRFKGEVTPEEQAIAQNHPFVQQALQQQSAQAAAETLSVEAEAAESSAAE

[2] = molecular target: T2, ProQ (minimal ProQ, FinO domain with short N- and C-terminal extensions) (Neisseria meningitidis, UniProt Q9JY98 1-141); test: EMSA; max bound 91%; 25 mM Tris pH 7.5, 150 mM NaCl, 5% glycerol, 1 mM MgCl2, 1 nM 32P-RNA, ProQ up to 50 nM, 30 min at room temperature; 6% native gel at 4 C; conditions: protein: recombinant; tags: N-terminal His6-TEV, cleaved; one extra N-terminal Ser remains; label: 5'-32P; hairpin, GAAA loop
T2 sequence: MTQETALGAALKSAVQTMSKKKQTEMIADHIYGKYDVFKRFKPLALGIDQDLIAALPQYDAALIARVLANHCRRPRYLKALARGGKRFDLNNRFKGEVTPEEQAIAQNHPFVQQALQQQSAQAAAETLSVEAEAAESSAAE

[3] = molecular target: T2, ProQ (minimal ProQ, FinO domain with …); test: EMSA; max bound 89%; 25 mM Tris pH 7.5, 150 mM NaCl, 5% glycerol, 1 mM MgCl2, 1 nM 32P-RNA, ProQ up to 50 nM, 30 min at room temperature; 6% native gel at 4 C; conditions: protein: recombinant, tags: N-terminal His6-TEV, cleaved, one extra N-terminal Ser remains, label: 5'-32P, terminator hairpin
[4] = molecular target: T2, ProQ (minimal ProQ, FinO domain with …); test: EMSA; max bound 85%; 25 mM Tris pH 7.5, 150 mM NaCl, 5% glycerol, 1 mM MgCl2, 1 nM 32P-RNA, ProQ up to 50 nM, 30 min at room temperature; 6% native gel at 4 C; conditions: protein: recombinant; tags: N-terminal His6-TEV, cleaved; one extra N-terminal Ser remains; label: 5'-32P; terminator hairpin, 5-U tail
[5] = molecular target: T2, ProQ (minimal ProQ, FinO domain with …); test: EMSA; max bound 88%; 25 mM Tris pH 7.5, 150 mM NaCl, 5% glycerol, 1 mM MgCl2, 1 nM 32P-RNA, ProQ up to 50 nM, 30 min at room temperature; 6% native gel at 4 C; conditions: protein: recombinant, tags: N-terminal His6-TEV, cleaved, one extra N-terminal Ser remains, label: 5'-32P, terminator hairpin
[6] = molecular target: T2, ProQ (minimal ProQ, FinO domain with …); test: EMSA; max bound 66%; estimated, not accurately fit; 25 mM Tris pH 7.5, 150 mM NaCl, 5% glycerol, 1 mM MgCl2, 1 nM 32P-RNA, ProQ up to 50 nM, 30 min at room temperature; 6% native gel at 4 C; conditions: protein: recombinant; tags: N-terminal His6-TEV, cleaved; one extra N-terminal Ser remains; label: 5'-32P; terminator hairpin, 7 nt 3' tail
[7] = molecular target: T2, ProQ (minimal ProQ, FinO domain with …); test: EMSA; undetected up to 50 nM ProQ; 25 mM Tris pH 7.5, 150 mM NaCl, 5% glycerol, 1 mM MgCl2, 1 nM 32P-RNA, ProQ up to 50 nM, 30 min at room temperature; 6% native gel at 4 C; conditions: protein: recombinant; tags: N-terminal His6-TEV, cleaved; one extra N-terminal Ser remains; label: 5'-32P; terminator hairpin, no tail
[8] = molecular target: T2, ProQ (minimal ProQ, FinO domain with …); test: EMSA; max bound 64%; 25 mM Tris pH 7.5, 150 mM NaCl, 5% glycerol, 1 mM MgCl2, 1 nM 32P-RNA, ProQ up to 50 nM, 30 min at room temperature; 6% native gel at 4 C; conditions: protein: recombinant; tags: N-terminal His6-TEV, cleaved; one extra N-terminal Ser remains; label: 5'-32P; hairpin, GAAA loop
[9] = molecular target: T2, ProQ (minimal ProQ, FinO domain with …); test: EMSA; max bound 80%; 25 mM Tris pH 7.5, 150 mM NaCl, 5% glycerol, 1 mM MgCl2, 1 nM 32P-RNA, ProQ up to 50 nM, 30 min at room temperature; 6% native gel at 4 C; conditions: protein: recombinant; tags: N-terminal His6-TEV, cleaved; one extra N-terminal Ser remains; label: 5'-32P; hairpin, GAAA loop
[10] = molecular target: T2, ProQ (minimal ProQ, FinO domain with …); test: EMSA; max bound 81%; 25 mM Tris pH 7.5, 150 mM NaCl, 5% glycerol, 1 mM MgCl2, 1 nM 32P-RNA, ProQ up to 50 nM, 30 min at room temperature; 6% native gel at 4 C; conditions: protein: recombinant; tags: N-terminal His6-TEV, cleaved; one extra N-terminal Ser remains; label: 5'-32P; terminator hairpin, GAAA loop
[11] = molecular target: T2, ProQ (minimal ProQ, FinO domain with …); test: EMSA; max bound 53%; 25 mM Tris pH 7.5, 150 mM NaCl, 5% glycerol, 1 mM MgCl2, 1 nM 32P-RNA, ProQ up to 50 nM, 30 min at room temperature; 6% native gel at 4 C; conditions: protein: recombinant; tags: N-terminal His6-TEV, cleaved; one extra N-terminal Ser remains; label: 5'-32P; terminator hairpin, 4-U tail
[12] = molecular target: T2, ProQ (minimal ProQ, FinO domain with …); test: EMSA; max bound 53%; Hill fit; 25 mM Tris pH 7.5, 150 mM NaCl, 5% glycerol, 1 mM MgCl2, 1 nM 32P-RNA, ProQ up to 50 nM, 30 min at room temperature; 6% native gel at 4 C; conditions: protein: recombinant; tags: N-terminal His6-TEV, cleaved; one extra N-terminal Ser remains; label: 5'-32P; terminator hairpin, GAAA loop
[13] = molecular target: T2, ProQ (minimal ProQ, FinO domain with …); test: EMSA; max bound 86%; 25 mM Tris pH 7.5, 150 mM NaCl, 5% glycerol, 1 mM MgCl2, 1 nM 32P-RNA, ProQ up to 50 nM, 30 min at room temperature; 6% native gel at 4 C; conditions: protein: recombinant; tags: N-terminal His6-TEV, cleaved; one extra N-terminal Ser remains; label: 5'-32P
[14] = molecular target: T2, ProQ (minimal ProQ, FinO domain with …); test: EMSA; max bound 90%; 25 mM Tris pH 7.5, 150 mM NaCl, 5% glycerol, 1 mM MgCl2, 1 nM 32P-RNA, ProQ up to 50 nM, 30 min at room temperature; 6% native gel at 4 C; conditions: protein: recombinant; tags: N-terminal His6-TEV, cleaved; one extra N-terminal Ser remains; label: 5'-32P; terminator hairpin, 5-U tail
[15] = molecular target: T2, ProQ (minimal ProQ, FinO domain with …); test: EMSA; max bound 58%; 25 mM Tris pH 7.5, 150 mM NaCl, 5% glycerol, 1 mM MgCl2, 1 nM 32P-RNA, ProQ up to 50 nM, 30 min at room temperature; 6% native gel at 4 C; conditions: protein: recombinant; tags: N-terminal His6-TEV, cleaved; one extra N-terminal Ser remains; label: 5'-32P; terminator hairpin, 4-U tail
[16] = molecular target: T2, ProQ (minimal ProQ, FinO domain with …); test: EMSA; max bound 79%; 25 mM Tris pH 7.5, 150 mM NaCl, 5% glycerol, 1 mM MgCl2, 1 nM 32P-RNA, ProQ up to 50 nM, 30 min at room temperature; 6% native gel at 4 C; conditions: protein: recombinant; tags: N-terminal His6-TEV, cleaved; one extra N-terminal Ser remains; label: 5'-32P; terminator hairpin, 6-U tail

Molecule: carA-5'
- Kd [1]: 1.3 nM

Molecule: pnp-5'
- Kd [1]: 7.9 nM

Molecule: iga-3'
- Kd [1]: 0.3 nM

B1: rpmG-loop-44 (structured_RNA)
RNA: GGGAUUUCAGUUUGAAAGCAAAGCCUCCGAAAGGAGGCUUUUUU
- Kd [2]: 4 ± 2 nM

B2: rpmG-U6AU (structured_RNA)
RNA: GGGAUUUCAGUUUGAAAGCAAAGCCUCCGACUGUUCGGAGGCUUUUUUAU
- Kd ([3]; 8 nt 3' tail): 0.2 ± 0.23 nM

B3: rpmG-U5 (structured_RNA)
RNA: GGGAUUUCAGUUUGAAAGCAAAGCCUCCGACUGUUCGGAGGCUUUUU
- Kd [4]: 0.47 ± 0.27 nM

B4: AniS-U7 (structured_RNA)
RNA: GGUUUCCUCUUGAUGUGUGUGUUUGGGUGUGGCUGCCGCCACCCCUUUUUUU
- Kd ([5]; 7-U tail): 0.82 ± 0.21 nM

B5: rpmG-U6A (structured_RNA)
RNA: GGGAUUUCAGUUUGAAAGCAAAGCCUCCGACUGUUCGGAGGCUUUUUUA
- Kd [6]: < 0.5 nM

B6: rpmG-U6AU2 (structured_RNA)
RNA: GGGAUUUCAGUUUGAAAGCAAAGCCUCCGACUGUUCGGAGGCUUUUUUAUU
- Kd ([5]; 9 nt 3' tail): 0.22 ± 0.26 nM

B7: AniS-noU (structured_RNA)
RNA: GGUUUCCUCUUGAUGUGUGUGUUUGGGUGUGGCUGCCGCCACCCC
- binding result [7]: no binding

B8: rpmG-loop-36 (structured_RNA)
RNA: GGGAUUUCAGUUUGAAAGCAAAGCGAAAGCUUUUUU
- Kd [8]: 0.13 ± 0.14 nM

B9: rpmG-loop-40 (structured_RNA)
RNA: GGGAUUUCAGUUUGAAAGCAAAGCCUGAAAAGGCUUUUUU
- Kd [9]: 1.2 ± 1.5 nM

B10: rpmG-loop (structured_RNA)
RNA: GGGAUUUCAGUUUGAAAGCAAAGCCUCCGAGAAAUCGGAGGCUUUUUU
- Kd [10]: 0.5 ± 0.34 nM

B11: rpmG-3' (structured_RNA)
RNA: GGGAUUUCAGUUUGAAAGCAAAGCCUCCGACUGUUCGGAGGCUUUUUU
- Kd ([3]; 6-U 3' tail, 3 U paired with upstream A): 1 ± 0.52 nM

B12: AniS-U4 (structured_RNA)
RNA: GGUUUCCUCUUGAUGUGUGUGUUUGGGUGUGGCUGCCGCCACCCCUUUU
- Kd [11]: 0.9 ± 0.58 nM

B13: AniS-loop (structured_RNA)
RNA: GGUUUCCUCUUGAUGUGUGUGUUUGGGUGUGGCGAAAGCCACCCCUUUUUUUU
- Kd [12]: 0.39 ± 0.18 nM

B14: intergenic (structured_RNA)
RNA: GGUAAUGCCGAAAGGGGUUUGACGAUGCCGGCGUGCGCUGUCAAACCCUUUUUCU
- Kd [13]: 1.4 ± 1 nM

B15: AniS-U5 (structured_RNA)
RNA: GGUUUCCUCUUGAUGUGUGUGUUUGGGUGUGGCUGCCGCCACCCCUUUUU
- Kd [14]: 6.5 ± 1.3 nM

B16: rpmG-U4 (structured_RNA)
RNA: GGGAUUUCAGUUUGAAAGCAAAGCCUCCGACUGUUCGGAGGCUUUU
- Kd [15]: 2.6 ± 3.5 nM

B17: AniS-U6 (structured_RNA)
RNA: GGUUUCCUCUUGAUGUGUGUGUUUGGGUGUGGCUGCCGCCACCCCUUUUUU
- Kd [16]: 0.7 ± 0.62 nM
